Reference: the RNAGym collection of RNA variant scans (doi:10.1073/pnas.2313332121)

B1: TPR t1 (parent)
chain: GACCAAUCUGCCCUCAGAGCUCGAGAACAUCUUCGGAUGCAGAGGAGGCAGGCUUCGGUGGCGCGAUAGCGCCAACGUCCUCAACCUCCAAUGCAUCCCACCACAUGAUGAUGCCUGAAGAGCCUUGGUUUUUUG

Variants of: B1
Experiment: polymerase ribozyme fitness, log enrichment relative to wild type (log ratio); higher = more active; in vitro selection for triplet polymerase activity
Method in brief: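 Each subunit of a heterodimeric triplet polymerase ribozyme was represented by a PCR-built, transcribed mutant library that underwent triplicate single-round in vitro selection with frozen incubation at −7 °C. Extended constructs were recovered by gel excision, streptavidin-bead capture and RT-PCR, and Illumina sequencing of input and output libraries kept genotypes with ≥10 input reads and ≥1 read per output. Fitness is the logarithm of genotype enrichment relative to wild-type enrichment, from inverse-variance-weighted replicate averages, with a logarithm base of 2.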

Row | Variant | polymerase ribozyme fitness (log ratio)
1 | C72G C86U A111U C115A | -4.83
2 | C72A U81A C94U C114A | -2.21
3 | C72G A111U | -3.82
4 | C72G A111G | 0.355
5 | G71U G120A C123U U133G | -3.23
6 | C72A C124U | 1.25
7 | C72G A90G | -1.28
8 | C72G C115U U116C | -2.72
9 | C72G A121U | 0.731
10 | C72G A121G | 0.881
11 | C72G G77C A95G C101G | -2.74
12 | C72A C94G C102A C115U | -5.19
13 | C72A A103U | -4.58
14 | C72G C94A A119U | -1.99
15 | C72A U96A A108G G122U U129C | -3.93
16 | C72A C104G | -7.39
17 | C72A C88U G93C | -0.854
18 | C72G C99A C114G U129A U132A G135C | -4.93
19 | G71U U78A C80U C114G | -2.44
20 | C72G C99U | -3.45
21 | C72G U78C G113A | -1.93
22 | C72A G117A U126A | -1.78
23 | C72A C101U C124A G135A | 2.37
24 | C72G C98A C101U G110U G120U C123G U130G | -6.41

Row | Variant | polymerase ribozyme fitness (log ratio)
25 | C72A C102A U125G | -2.01
26 | C72A C80A A90G U125A | -3.65
27 | G71U G135U | -1.02
28 | C72A C88A G120U | -0.866
29 | C72G A100U G113U C124U | -4.64
30 | C72G U78A G127U U129C | -2.25
31 | C72A C82G U112G G117A U126C U129G | -5.85
32 | G71U G110C | -3.69
33 | G71U G110A | -1.39
34 | C72G C101A U125G | -1.8
35 | G71U G77U C89A | -2.84
36 | C72G C79A | -0.874
37 | C72G G127U | -1.1
38 | C72G U78G C97U C124A | 1.18
39 | C72A C86G G122A | -2.26
40 | C72A C76A | -1.85
41 | C72A U92A A121U U125G | -1.7
42 | G71U G120U | -0.136
43 | G71U G120A | 0.754
44 | C72G C86A U129C | -2.2
45 | C72A U78A G110C | -4.71
46 | C72A U125A | -0.026
47 | C72A U125C | -1.51
48 | C72G G77U | -1.71

Row | Variant | polymerase ribozyme fitness (log ratio)
49 | C72A C102U C123A C124G | 0.156
50 | C72G U78G U116A | -3.97
51 | C72G C73U G93C A111C G122U G135A | -4.92
52 | C72A U129C | -0.6
53 | C72G G113C U129A | -4.04
54 | C72A A111U | -2.42
55 | C72A A111C | -0.314
56 | C72A C80U | 0.231
57 | C72G G122A C123G | 1.99
58 | C72A C123A U126G | -0.782
59 | C72G C88A G113U G127C | -5.08
60 | C72A G77C U92C G122A | -3.67
61 | C72G C114A | -1.55
62 | C72A U109A | -4.06
63 | C72A U81A C86U U106A G128A U130A | -4.98
64 | C72A A100U U106C | -0.411
65 | C72A A105U G122A | -2.49
66 | C72A U81C | -0.634
67 | C72A A111C C124A G127A | 0.235
68 | G71U G127A | -1.25
69 | C72G U78G | -0.102
70 | C72A G120C | 1.31
71 | C72A C94A | -0.415
72 | G71U G93A | -0.562

Row | Variant | polymerase ribozyme fitness (log ratio)
73 | G71U G93C | -2.12
74 | G71U G107A | -4.04
75 | G71U U78G | -0.594
76 | G71U U78C | -0.468
77 | C72A C115A G135A | -0.346
78 | C72A A95C | -0.926
79 | C72G C82G G93C | -1.73
80 | C72G C86U U130C | -0.236
81 | C72A G77A C89U U106C | -1.11
82 | C72G C104A | -1.71
83 | C72G C101A C114U | -3.4
84 | C72G G117C | -3.87
85 | C72A C89U U92G | -1.39
86 | G71U U81G C114A | -5.63
87 | G71U G77C U126C | -2.3
88 | C72G C115A | -0.17
89 | C72G C115U | -1.03
90 | C72A A111G A121C | 1.27
91 | C72G C88U | -0.692
92 | C72A C80G C114A C123G U126A | -6.21
93 | C72A U81G G120U | -0.653
94 | G71U U92C | -1.11
95 | C72A U87G | 0.194
96 | C72G C86G U109A C114A G120C | -5.75

Row | Variant | polymerase ribozyme fitness (log ratio)
97 | G71U U109A | -4.43
98 | C72G G93U | -1.16
99 | C72G G120C | 0.587
100 | C72G G120U | 0.278
101 | C72G G120A | 0.223
102 | C72A U112A | 1.59
103 | C72A A90U C115U | -1.55
104 | C72A C115G | -2.29
105 | C72A U96G U132A | -0.0408
106 | C72G C94G | -1.73
107 | C72A C85U C104U | 0.563
108 | C72G G77C U78C A105G A119G | -2.47
109 | C72A C73G C86U C115A C123G | -0.582
110 | C72G C85U | -1.45
111 | C72A U81C U109A G110U U112G A121U U125A | -6.45
112 | G71U U133G | 0.225
113 | C72G C97U | -1.05
114 | C72A G93U G110U | -2.37
115 | C72G A90C C101U | -1.47
116 | C72G U78C C82U C94A | -0.768
117 | C72G C80A U81G C86A | -6.59
118 | C72A C104A A105U G120A | -2.67
119 | C72G A91C A95C A121G G128C U133G | -3.31
120 | C72A C102A U129A | -2.3

Row | Variant | polymerase ribozyme fitness (log ratio)
121 | C72A C102A | -1.51
122 | C72G A90U C101A G122A | -3.94
123 | C72A C76G U112G A119G | -0.512
124 | C72G G135A | -0.341
125 | C72G U78C C79A G128C | -4.09
126 | C72G A91C U96C C104A | -4.69
127 | C72A G120A U130G | -0.18
128 | C72A U131A | -0.165
129 | C72A C114A | -1.85
130 | G71U G93U C104U A119G | 0.516
131 | C72G C88G U96G | -2.68
132 | C72G C88A A90U | -2.14
133 | C72G C73U | -0.887
134 | C72A U133A | 0.191
135 | C72G C82U U131G | -0.338
136 | C72G C101A U106A A119U C123U | -4.15
137 | C72G A83U A90G C114G | -3.25
138 | C72G A108C | -5.06
139 | C72A G113C | -2.03
140 | C72A A91G U92G G113C | -2.41
141 | C72G C88U C123A | 0.243
142 | C72G A105G | -1.94
143 | C72G C88U A91C A118U G122U | -2.76
144 | C72A G77A | -0.135

Row | Variant | polymerase ribozyme fitness (log ratio)
145 | C72G G77A G120A | -1.96
146 | C72G C86U | 0.195
147 | C72G C86G | -2.24
148 | C72G C86A | -0.939
149 | C72G C85U C102U C104A A105G | -7.34
150 | G71U U129G | -0.793
151 | C72G C102A A105C | -5.78
152 | G71U G117U | -1.78
153 | C72G A84C | -0.56
154 | C72G C89A A90U | -2.32
155 | C72A C76G C101A C115A | -1.47
156 | C72A U87C C88G U116G | -3.6
157 | C72A C79G | -1.13
158 | C72A G122A | -0.72
159 | C72G C73A A121G | 0.168
160 | C72G G113A | -1.71
161 | C72G G113C | -2.87
162 | C72G A111G G122A | -1.48
163 | C72A U78G U133A | 0.102
164 | C72G C114G U130G U133A | -3.37
165 | G71U U112G | -0.608
166 | G71U G93C G117C | -4.78
167 | C72G U78G C97U | 0.186
